This assay concerns the target Pertuzumab, 2 weeks stressed in PBS, pH 7.4. In words: SPR; Biacore T200; pertuzumab immobilized on a Series S Protein A sensor chip (145 RU); single-cycle kinetics, five sequential injections of HER2 from 1.22 to 100 nM; phosphate-buffered saline with 0.05% Tween 20; flow 30 μL/min; 1:1 binding model.

Pertuzumab, 2 weeks stressed in PBS, pH 7.4, sequence (heavy, as listed by the source, chain 1 of 2): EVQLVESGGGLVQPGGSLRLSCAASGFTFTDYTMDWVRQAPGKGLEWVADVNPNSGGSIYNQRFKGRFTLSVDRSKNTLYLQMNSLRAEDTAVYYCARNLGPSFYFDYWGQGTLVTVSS
Pertuzumab, 2 weeks stressed in PBS, pH 7.4, sequence (light, as listed by the source, chain 2 of 2): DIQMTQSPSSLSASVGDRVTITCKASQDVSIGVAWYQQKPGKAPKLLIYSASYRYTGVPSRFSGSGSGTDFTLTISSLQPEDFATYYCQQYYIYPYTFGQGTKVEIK

On to “Human HER2/ErbB2 protein, extracellular domain Thr23-Thr652, His Tag (from UniProt P04626 23-652) (domain or fragment)”, for which the Kd came out at 2.3 nM.

The record behind these values is PMC9979147.
